How the values were obtained:
[1] = tested on: Tde1tox H279A/D282A (catalytically inactive Ntox15 domain) (Phocaeicola vulgatus); test: BLI; conditions: BLI (Octet Red96), biotinylated oligo on streptavidin sensors, Octet kinetics buffer (Sartorius), association 300 s, dissociation 600 s, one-site equilibrium …
[2] = biological target: Tdi orphan B (TdioB), orphan immunity protein; test: BLI; Octet Red96; hexahistidine immunity proteins (5 mg/mL) immobilised on NTA biosensors; varying concentrations of Tde1^tox H279A/D282A in Octet kinetics buffer; association 300 s, dissociation 600 s; one site fit of equilibrium binding data
[3] = biological target: Tdi orphan A (TdioA), orphan immunity protein; test: as above
[4] = biological target: Tdi1 (cognate immunity protein of Tde1) (Phocaeicola vulgatus); test: as above

Substance | Kd [1] | Kd [2] | Kd [3] | Kd [4]
30-nt random-sequence biotinylated ssDNA | 500 nM | – | – | –
30-bp random-sequence biotinylated dsDNA | 500 nM | – | – | –
Tde1^tox H279A/D282A (catalytically inactive Ntox15 domain of the Hcp-Ntox15 effector Tde1) (domain or fragment) | – | 19 nM | 24 nM | 18 nM

— PMC10470768
